In patent publication US5627154A, “Calcium channel blocking polypeptides from Heteropoda venatoria” (Pfizer Inc., priority 1995, dated 1997) one finds IC50 and IC50 for blocking calcium channels (decrease in fura2 fluorescence) data, which are given here for ten molecules.

The test system of assay [1] is calcium channels. The conditions noted are these: read-out: IC50 values for blocking calcium channels; cerebellar granule cells from 8 day old rats, fura2 fluorescence, 37° C.
The target in assay [2] is calcium channels.

Where no end group is shown, it is not given here.

What is called IC50 is the concentration needed to halve the response being measured. On to `COc1ccc(CCN(C)CCCC(C#N)(c2ccc(OC)c(OC)c2)C(C)C)cc1OC` (stereo not shown) [Verapamil], for which the half-maximal inhibitory concentration (IC50) in assay [1] amounted to 4.8 µM.
As for DDCGKLFSGCDTNADCCEGYVCRLWCKLDW-NH2 (disulfide (positions not given here)) [Heteropoda peptide KJ 6], in assay [2], the IC50 for blocking calcium channels (decrease in fura2 fluorescence) was less than 3 µM.
DCGTIWHYCGTDQSECCEGWKCSRQLCKYVIDW-NH2 (not fully specified (bridges); also: 3 disulfide bonds, pairing not given here) [Heteropoda peptide AU 3]: the IC50 for blocking calcium channels (decrease in fura2 fluorescence) in assay [2] is less than 3 µM.
As to DCGTIWHYCGTDQSECCEGWKCSRQLCKYVIDW-NH2 (not fully specified (bridges); also: 3 disulfide bonds, pairing not given here) [Heteropoda peptide KJ 5], the IC50 for blocking calcium channels (decrease in fura2 fluorescence) in assay [2] was less than 3 µM.
Still for that read-out and setting: the same measure for DDCGTLFSGCDTSKDCCEGYVCHLWCKYK-NH2 (not fully specified (bridges); also: 3 disulfide bonds, pairing not given here) [Heteropoda peptide KJ 1]: less than 3 µM.
Same read-out and setting: the same measure for DDDCGWIMDDCTSDSDCCPNWVCSKTGFVKNICKYEM-NH2 (not fully specified (bridges); also: 3 disulfide bonds, pairing not given here) [Heteropoda peptide AU 5A]: less than 3 µM.
With DDCGGLFSGCDSNADCCEGYVCRLWCKYKL-NH2 (not fully specified (bridges); also: 3 disulfide bonds, pairing not given here) [Heteropoda peptide AU 2], in assay [2], the IC50 for blocking calcium channels (decrease in fura2 fluorescence) was less than 3 µM.
On the same count and under the same terms, the same measure for ADCGWLFHSCESNADCCENWACATTGRFRYLCKYQI-NH2 (not fully specified (bridges); also: 3 disulfide bonds, pairing not given here) [Heteropoda peptide AU 5B]: less than 3 µM; for ECGTLFSGCSTHADCCEGFICKLWCRYERTW-NH2 (not fully specified (bridges); also: 3 disulfide bonds, pairing not given here) [Heteropoda peptide AU 5C]: less than 3 µM; for ECGTLFSGCSTHADCCEGFICKLWCRYERTW-NH2 (disulfide (positions not given here)) [Heteropoda peptide KJ 7]: less than 3 µM.
